The target in data set [1] is Klebsiella pneumoniae RstA N-terminal receiver domain (Klebsiella pneumoniae) (UniProt A6T8N1). Put plainly: NMR line-widths; inactive kpRstA RD (without BeF3-) at high concentrations; data not shown.
Data set [2] deals with the molecule itself. Put plainly: SEC; full-length kpRstA in the presence of BeF3-; data not shown. (In general: SEC sorts molecules by how far they enter the pores of the column.)
Data set [3] addresses T1, kpRstA DBD (Klebsiella pneumoniae, UniProt A6T8N1 130-236).
T1 sequence: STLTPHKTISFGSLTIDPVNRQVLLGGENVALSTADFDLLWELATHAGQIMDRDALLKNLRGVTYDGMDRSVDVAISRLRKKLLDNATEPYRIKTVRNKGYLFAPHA
The data set can be described thus: ITC; one-site model, N = 1.05 (text gives error 0.54); ITC 25 C: 20 mM Tris pH 7.5, 100 mM NaCl (DBD); plus 7 mM MgCl2 with or without 5.3 mM BeSO4 and 35 mM NaF (full-length). NMR of complex: 20 mM Na phosphate pH. The note with it: protein: recombinant; tags: N-terminal M-6H-AMG; chain copies: 2. In general terms: ITC needs no label: the signal is the heat of the interaction.

Another data set addresses kpRstA DBD R207A (Klebsiella pneumoniae, UniProt A6T8N1 130-236, R207A). Put plainly: ITC; binding completely abolished; DNA-16a per Figure 1E legend (Table 1 says DNA-22); ITC 25 C: 20 mM Tris pH 7.5, 100 mM NaCl (DBD); plus 7 mM MgCl2 with or without 5.3 mM BeSO4 and 35 mM NaF (full-length). NMR of complex: 20 mM Na phosphate pH. Particulars: protein: recombinant; tags: N-terminal M-6H-AMG; chain copies: 2.

The target of data set [4] is T1, kpRstA DBD. The data set can be described thus: ITC; sequential model, KD1 (first site); ITC 25 C: 20 mM Tris pH 7.5, 100 mM NaCl (DBD); plus 7 mM MgCl2 with or without 5.3 mM BeSO4 and 35 mM NaF (full-length). NMR of complex: 20 mM Na phosphate pH. Particulars: protein: recombinant; tags: N-terminal M-6H-AMG; chain copies: 2.
Another data set addresses T2, kpRstA full-length (Klebsiella pneumoniae, UniProt A6T8N1 1-239).
T2 sequence: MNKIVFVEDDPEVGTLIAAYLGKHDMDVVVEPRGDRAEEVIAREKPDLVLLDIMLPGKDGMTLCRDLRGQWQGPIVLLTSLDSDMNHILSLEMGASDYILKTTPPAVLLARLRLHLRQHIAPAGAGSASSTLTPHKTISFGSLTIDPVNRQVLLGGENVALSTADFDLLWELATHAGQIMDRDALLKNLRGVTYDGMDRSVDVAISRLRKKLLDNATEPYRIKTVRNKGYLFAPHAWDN
The data set can be described thus: ITC; without BeF3-, 7 mM MgCl2; sequential model, KD1; ITC 25 C: 20 mM Tris pH 7.5, 100 mM NaCl (DBD); plus 7 mM MgCl2 with or without 5.3 mM BeSO4 and 35 mM NaF (full-length). NMR of complex: 20 mM Na phosphate pH. The note with it: protein: recombinant; tags: His-tag removed by thrombin; N-terminal GSAMA remains; chain copies: 2.

The stoichiometry N is a count of units in the complex or per binding partner. In the case of “Klebsiella pneumoniae RstA N-terminal receiver domain (from UniProt A6T8N1 1-119) (domain or fragment)”, in data set [1], the stoichiometry N worked out at 2.

B1: full-length Klebsiella pneumoniae RstA (natural protein)
chain: GSAMAMNKIVFVEDDPEVGTLIAAYLGKHDMDVVVEPRGDRAEEVIAREKPDLVLLDIMLPGKDGMTLCRDLRGQWQGPIVLLTSLDSDMNHILSLEMGASDYILKTTPPAVLLARLRLHLRQHIAPAGAGSASSTLTPHKTISFGSLTIDPVNRQVLLGGENVALSTADFDLLWELATHAGQIMDRDALLKNLRGVTYDGMDRSVDVAISRLRKKLLDNATEPYRIKTVRNKGYLFAPHAWDN
notes: RstA response regulator of Klebsiella pneumoniae, full length (RD residues 1-119, DBD residues 131-236); Cloned in a modified pET32a(+) lacking the enterokinase site; also called kpRstA; full-length kpRstA; source: E. coli BL21(DE3), purified (Ni-NTA, Superdex-75 SEC, thrombin digestion); not shown: His-tag, N-terminal, cleaved
For B1, in data set [2], the “stoichiometry N” value was found to be 2.

B2: DNA-16a (dsDNA)
DNA 1: ACGTTGTACATTCCGT
DNA 2: ACGGAATGTACAACGT
The term Kd denotes the free concentration of one partner at which half of the binding sites on the other are occupied at equilibrium, for simple one-to-one binding. In the case of B2, the dissociation constant (Kd) with kpRstA DBD [3] was found to be 8.17 ± 0.53 µM. Also, the binding result in the data set with kpRstA DBD R207A was “no binding”.

B3: DNA-22 (dsDNA)
DNA 1: GTTGTACATTCCGTTACTCCCT
DNA 2: AGGGAGTAACGGAATGTACAAC
In the case of B3, the Kd in the data set with kpRstA DBD [4] turned out to be 10.3 ± 1.14 µM; in the data set with kpRstA full-length, 45.5 ± 8.41 µM.

(Values after publication PMC4117788, “Structural dynamics of the two-component response regulator RstA in recognition of promoter DNA element” (Nucleic Acids Research, 2014).)
